The values below come from patent publication US20200399314A1 (MEDIKINE, published 2020).

Bridge positions count the residues as written; N and C are the ends. Ends that are not written are not given here.

T1: human IL-2Rα subunit (human, UniProt P01589 22-213, limits assumed)
T1 construct: also called CD25
T1 sequence (looked up): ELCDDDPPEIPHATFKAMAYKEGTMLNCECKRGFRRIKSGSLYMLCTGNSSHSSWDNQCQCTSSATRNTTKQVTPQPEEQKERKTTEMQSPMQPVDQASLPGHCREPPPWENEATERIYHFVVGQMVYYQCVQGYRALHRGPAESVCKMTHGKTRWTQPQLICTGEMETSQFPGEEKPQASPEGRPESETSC

B1: SEQ ID NO 232 (peptide)
peptide: WCWEPHDQYYVRCP
B2: SEQ ID NO 227 (peptide)
peptide: DCLDLRGTVGMVCQ
B3: SEQ ID NO 245 (peptide)
peptide: GGCSLVWADSWVCIF
B4: SEQ ID NO 229 (peptide)
peptide: SCMDLKGSVGWVCD
B5: SEQ ID NO 242 (peptide)
peptide: HVICSVNGGCRG
B6: SEQ ID NO 213 (peptide)
peptide: VYCRREKPGGEMHCRS
B7: SEQ ID NO 208 (peptide)
peptide: VKCKLVNPGSGWACHF
modifications: disulfide 3-14 (inferred)
B8: SEQ ID NO 23 (peptide)
peptide: YVMCSAFGCKSI
B9: SEQ ID NO 228 (peptide)
peptide: PCQRLAEYYSQQCL
modifications: disulfide 2-13 (inferred)
B10: SEQ ID NO 59 (peptide)
peptide: RRFCLRSEPTACWIV
B11: SEQ ID NO 66 (peptide)
peptide: RRFCLRSEPTACWTV
modifications: disulfide 4-12 (inferred)
B12: SEQ ID NO 61 (peptide)
peptide: MRFCLRSEPTACWTV
B13: SEQ ID NO 62 (peptide)
peptide: RRFCLRSEPTACWDV
B14: SEQ ID NO 68 (peptide)
peptide: RRFCLRSEPTACWYV
B15: SEQ ID NO 63 (peptide)
peptide: RRFCLRSDPTACWIV
B16: SEQ ID NO 65 (peptide)
peptide: RRFCLRSEPMACWTV
modifications: disulfide 4-12 (inferred)
B17: SEQ ID NO 54 (peptide)
peptide: IRFCLRSEPTACWIV
B18: SEQ ID NO 243 (peptide)
peptide: IRFCLRSEPTACWIV
B19: SEQ ID NO 64 (peptide)
peptide: KRFCLRSEPTACWTV
B20: SEQ ID NO 240 (peptide)
peptide: FLPWPVYFSQVLGGG
B21: SEQ ID NO 238 (peptide)
peptide: WCVGQPLYRLGSCK
modifications: disulfide 2-13 (inferred)
B22: SEQ ID NO 244 (peptide)
peptide: IRCRYEKQSGICLF
B23: SEQ ID NO 210 (peptide)
peptide: VRCRLARPGLTWECLS
B24: SEQ ID NO 247 (peptide)
peptide: EWECRFLPGRRGCSLF
B25: SEQ ID NO 218 (peptide)
peptide: HGCTLTKPGAEWVCSF
B26: SEQ ID NO 222 (peptide)
peptide: TDCQETWPGDRPWCHI
B27: SEQ ID NO 241 (peptide)
peptide: YVMCSAFGCKSI
B28: SEQ ID NO 239 (peptide)
peptide: WDQFQLGWEAGVAA
B29: SEQ ID NO 220 (peptide)
peptide: RDCAGMEPGTSVFCDN
B30: SEQ ID NO 233 (peptide)
peptide: YCHDFKGTVGTLCI
modifications: disulfide 2-13 (inferred)
B31: SEQ ID NO 234 (peptide)
peptide: GCQLVWQDDSYMCFY
B32: SEQ ID NO 248 (peptide)
peptide: KGCTLQNPGSGWVCLF
B33: SEQ ID NO 221 (peptide)
peptide: RDCFILEPGTSVYCDL
B34: SEQ ID NO 237 (peptide)
peptide: WCIGQPLFRQGSCK
B35: SEQ ID NO 230 (peptide)
peptide: TCESLAKMYEVECN
B36: SEQ ID NO 211 (peptide)
peptide: VRCRVLYPGQMAVCVS
B37: SEQ ID NO 209 (peptide)
peptide: VRCFMSEPGRVSYCTA
B38: SEQ ID NO 20 (peptide)
peptide: KVICGWDGCR
B39: SEQ ID NO 21 (peptide)
peptide: LVFCGKNGCHSG
B40: SEQ ID NO 246 (peptide)
peptide: GCSLMWQDGWWVCI
B41: SEQ ID NO 231 (peptide)
peptide: TCESLARMYNENCI
B42: SEQ ID NO 219 (peptide)
peptide: QLCPWSDPGSWGPCPL
B43: SEQ ID NO 212 (peptide)
peptide: VTCYRAVPGVEAYCFS
B44: SEQ ID NO 217 (peptide)
peptide: ATCHLLAPGVDNTCIF
B45: SEQ ID NO 22 (peptide)
peptide: VVLCTPKGCRSA
B46: SEQ ID NO 224 (peptide)
peptide: VKCYRNSPGVEAYCVG
modifications: disulfide 3-14 (inferred)
B47: SEQ ID NO 223 (peptide)
peptide: VKCFMSTPGQIAYCTT

The target of the test is T1, human IL-2Rα subunit.
One may read the IC50 as the concentration at which inhibition is half-maximal. High values mean lower potency, low ones higher potency. With B1, the IC50 is < 100 µM. For B2 the value was < 100 µM; for B3, < 100 µM. As for B4, the IC50 was < 100 µM. The result for B5 reads < 100 µM.

On to B6, for which the IC50 is < 100 µM.

For B7, the 50% inhibitory concentration (IC50) is < 100 µM. For B8 the value was < 100 µM. The result for B9 reads < 100 µM.

As to B10, the IC50 is < 100 µM. As to B11, the IC50 was < 100 µM. Turning to B12, the IC50 is < 100 µM. For B13 the value was < 100 µM. B14: the IC50 is < 100 µM. For B15, the concentration for half-maximal inhibition (IC50) was < 100 µM. With B16, the IC50 was < 100 µM. The result for B17 reads < 100 µM; that for B18, < 100 µM; that for B19, < 100 µM. On to B20, for which the half-maximal inhibitory concentration (IC50) is < 100 µM. For the molecule B21, the IC50 was < 100 µM.

Regarding B22, the IC50 is < 100 µM. As to B23, the IC50 is < 100 µM.

Regarding B24, the IC50 was < 100 µM. The result for B25 reads < 100 µM. The result for B26 reads < 100 µM; that for B27, < 100 µM. Take B28: the IC50 was < 100 µM.

Take B29: the IC50 is < 100 µM. For B30 the value was < 100 µM; for B31, < 100 µM. Turning to B32, the IC50 was < 100 µM. For B33 the value was < 100 µM. The result for B34 reads < 100 µM; that for B35, < 100 µM. For B36, the IC50 was < 100 µM. The result for B37 reads < 100 µM; that for B38, < 100 µM; that for B39, < 100 µM.

Consider B40, for which the IC50 is < 100 µM. As for B41, the IC50 was < 100 µM. The result for B42 reads < 100 µM.

Take B43: the IC50 is < 100 µM. With B44, the IC50 is < 100 µM. The result for B45 reads < 100 µM. As for B46, the concentration for half-maximal inhibition (IC50) was < 100 µM. B47: the IC50 was < 100 µM.
